{"source": "paper PMC10681739", "about": "“High-throughput data and modeling reveal insights into the mechanisms of cooperative DNA-binding by transcription factor proteins”", "data": [{"biological_target": "T1, ETS1 (Homo sapiens, UniProt P14921)", "T1 sequence": "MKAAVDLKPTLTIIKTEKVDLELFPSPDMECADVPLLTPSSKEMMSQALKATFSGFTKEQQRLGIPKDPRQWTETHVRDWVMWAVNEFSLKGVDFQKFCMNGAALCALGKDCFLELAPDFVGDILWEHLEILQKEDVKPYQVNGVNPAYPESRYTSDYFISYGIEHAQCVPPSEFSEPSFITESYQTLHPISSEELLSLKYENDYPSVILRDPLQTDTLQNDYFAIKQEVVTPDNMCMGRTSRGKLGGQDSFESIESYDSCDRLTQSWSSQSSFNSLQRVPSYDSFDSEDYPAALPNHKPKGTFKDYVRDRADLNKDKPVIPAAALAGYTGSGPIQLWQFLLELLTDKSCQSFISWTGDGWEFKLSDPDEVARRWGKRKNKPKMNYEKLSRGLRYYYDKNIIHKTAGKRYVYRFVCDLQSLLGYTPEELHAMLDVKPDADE", "test": "gcPBM; 1 nM ETS1", "conditions": "tags: N-terminal GST (pDEST15), kept (PMC6008103); label: surface-attached array probe", "values": [{"binder": "Table S2 C row 24 (dsDNA) DNA 1: GACGGGCGCGCGGCTTGCGGGCGGCGGGGCGCTGGG DNA 2: CCCAGCGCCCCGCCGCCCGCAAGCCGCGCGCCCGTC", "binding signal": "371 PBM fluorescence, median of replicate spots"}, {"binder": "Table S2 B row 1682 (dsDNA) DNA 1: CTTGTTCTATTTCCTGTTTGTGCTGAGTGACTGTCT DNA 2: AGACAGTCACTCAGCACAAACAGGAAATAGAACAAG", "binding signal": "15900 PBM fluorescence, median of replicate spots"}, {"binder": "Table S2 C row 114 (dsDNA) DNA 1: CTCTTCCATGCAGGCTGTGGTTGCCTTCAAATACCG DNA 2: CGGTATTTGAAGGCAACCACAGCCTGCATGGAAGAG", "binding signal": "357 PBM fluorescence, median of replicate spots"}, {"binder": "Table S2 C row 59 (dsDNA) DNA 1: CAGACAGTAACAAATGGTGGTTGCCGTCATGTGAAG DNA 2: CTTCACATGACGGCAACCACCATTTGTTACTGTCTG", "binding signal": "367 PBM fluorescence, median of replicate spots"}, {"binder": "Table S2 B row 2515 (dsDNA) DNA 1: CGGTGGCTTCCGGCCCATGGCGCTGGTTGGTGACTC DNA 2: GAGTCACCAACCAGCGCCATGGGCCGGAAGCCACCG", "binding signal": "14700 PBM fluorescence, median of replicate spots"}, {"binder": "Table S2 C row 104 (dsDNA) DNA 1: TCTCCCAGCGTCTGATGTGGCTTCGGTGTCAGACAT DNA 2: ATGTCTGACACCGAAGCCACATCAGACGCTGGGAGA", "binding signal": "352 PBM fluorescence, median of replicate spots"}, {"binder": "Table S2 B row 3812 (dsDNA) DNA 1: GAGTCGCTTCCGCTCCCGCCCCGCTCTCTGGCGTAG DNA 2: CTACGCCAGAGAGCGGGGCGGGAGCGGAAGCGACTC", "binding signal": "15300 PBM fluorescence, median of replicate spots"}, {"binder": "Table S2 C row 164 (dsDNA) DNA 1: GAGCGGAGACAGAACACCGCACACCCAGCGTCCCAA DNA 2: TTGGGACGCTGGGTGTGCGGTGTTCTGTCTCCGCTC", "binding signal": "352 PBM fluorescence, median of replicate spots"}, {"binder": "Table S2 C row 109 (dsDNA) DNA 1: CAAGCCCAAGAACGCTGTGGTTTTTGCAGACTCATA DNA 2: TATGAGTCTGCAAAAACCACAGCGTTCTTGGGCTTG", "binding signal": "353 PBM fluorescence, median of replicate spots"}, {"binder": "Table S2 C row 156 (dsDNA) DNA 1: AGGTGTGCTCTCCACCGCGGTTCACAAGGTGTCTGC DNA 2: GCAGACACCTTGTGAACCGCGGTGGAGAGCACACCT", "binding signal": "376 PBM fluorescence, median of replicate spots"}, {"binder": "Table S2 C row 5 (dsDNA) DNA 1: TAGTGTGAATCCCCGCCCACAGAGGGGCGGCACGTT DNA 2: AACGTGCCGCCCCTCTGTGGGCGGGGATTCACACTA", "binding signal": "372 PBM fluorescence, median of replicate spots"}, {"binder": "Table S2 C row 7 (dsDNA) DNA 1: AAATAGCGCAGGTCAACCACAGACCCCAGCACTGCA DNA 2: TGCAGTGCTGGGGTCTGTGGTTGACCTGCGCTATTT", "binding signal": "355 PBM fluorescence, median of replicate spots"}, {"binder": "Table S2 C row 191 (dsDNA) DNA 1: CCAAAAAGAGAGGCAGCCACAAGATCTTCTAAAAGG DNA 2: CCTTTTAGAAGATCTTGTGGCTGCCTCTCTTTTTGG", "binding signal": "380 PBM fluorescence, median of replicate spots"}, {"binder": "Table S2 C row 127 (dsDNA) DNA 1: CCGCCCTCGGTCCCCACCGCGGAGGACTCTCTCAAG DNA 2: CTTGAGAGAGTCCTCCGCGGTGGGGACCGAGGGCGG", "binding signal": "352 PBM fluorescence, median of replicate spots"}, {"binder": "Table S2 C row 57 (dsDNA) DNA 1: CACAGAACTGACCAGACCACATGGAGGCCAATCAAA DNA 2: TTTGATTGGCCTCCATGTGGTCTGGTCAGTTCTGTG", "binding signal": "379 PBM fluorescence, median of replicate spots"}, {"binder": "Table S2 C row 79 (dsDNA) DNA 1: CCCATCAGCAGAAAAACCACAGCAAGCTTAATGTGC DNA 2: GCACATTAAGCTTGCTGTGGTTTTTCTGCTGATGGG", "binding signal": "369 PBM fluorescence, median of replicate spots"}, {"binder": "Table S2 C row 70 (dsDNA) DNA 1: AAAGTCATTTAAGTGACCACACTTTATAGGCTTGCC DNA 2: GGCAAGCCTATAAAGTGTGGTCACTTAAATGACTTT", "binding signal": "361 PBM fluorescence, median of replicate spots"}, {"binder": "Table S2 C row 144 (dsDNA) DNA 1: ACCGTCAATCTCGACACCGCGGAGCACAATGCGTGC DNA 2: GCACGCATTGTGCTCCGCGGTGTCGAGATTGACGGT", "binding signal": "352 PBM fluorescence, median of replicate spots"}, {"binder": "Table S2 C row 171 (dsDNA) DNA 1: GACTGGTGGATCACTTGAGGTCAGTTTGAGACCAGC DNA 2: GCTGGTCTCAAACTGACCTCAAGTGATCCACCAGTC", "binding signal": "359 PBM fluorescence, median of replicate spots"}, {"binder": "Table S2 B row 2766 (dsDNA) DNA 1: TTTGCAAATCCAGAGCGGAGACTTCCGGTGGCCTAG DNA 2: CTAGGCCACCGGAAGTCTCCGCTCTGGATTTGCAAA", "binding signal": "14400 PBM fluorescence, median of replicate spots"}, {"binder": "Table S2 C row 90 (dsDNA) DNA 1: ACTGAAAATCTGCCTTGTGGCTGCTTCTGGTACACA DNA 2: TGTGTACCAGAAGCAGCCACAAGGCAGATTTTCAGT", "binding signal": "355 PBM fluorescence, median of replicate spots"}, {"binder": "Table S2 C row 40 (dsDNA) DNA 1: CTTCACGGCTAGTTCTGTGGGTGTCCCACTTAGTTT DNA 2: AAACTAAGTGGGACACCCACAGAACTAGCCGTGAAG", "binding signal": "366 PBM fluorescence, median of replicate spots"}, {"binder": "Table S2 C row 178 (dsDNA) DNA 1: GGCTGACTCTGTATCTGTGGGTGCTTCAGGGCCAAC DNA 2: GTTGGCCCTGAAGCACCCACAGATACAGAGTCAGCC", "binding signal": "371 PBM fluorescence, median of replicate spots"}, {"binder": "Table S2 C row 18 (dsDNA) DNA 1: ACCCTCGAAGCTCTAACCACTGTGGGCTATTTTTGC DNA 2: GCAAAAATAGCCCACAGTGGTTAGAGCTTCGAGGGT", "binding signal": "356 PBM fluorescence, median of replicate spots"}, {"binder": "Table S2 C row 86 (dsDNA) DNA 1: CGTCACTTCTGGAGCTGCGGTCGGGATCTGGGAGGA DNA 2: TCCTCCCAGATCCCGACCGCAGCTCCAGAAGTGACG", "binding signal": "360 PBM fluorescence, median of replicate spots"}, {"binder": "Table S2 C row 56 (dsDNA) DNA 1: TGTCTATCGATTAAAACCACTGGTAAGAGCCATTGA DNA 2: TCAATGGCTCTTACCAGTGGTTTTAATCGATAGACA", "binding signal": "359 PBM fluorescence, median of replicate spots"}, {"binder": "Table S2 C row 110 (dsDNA) DNA 1: GGATTCAACATTCCTTGTGGGCTGCTGGCCCCAGAC DNA 2: GTCTGGGGCCAGCAGCCCACAAGGAATGTTGAATCC", "binding signal": "359 PBM fluorescence, median of replicate spots"}, {"binder": "Table S2 C row 71 (dsDNA) DNA 1: CTGGGTTGGATGACCTGCGGTGGAACAGATGGCTCC DNA 2: GGAGCCATCTGTTCCACCGCAGGTCATCCAACCCAG", "binding signal": "374 PBM fluorescence, median of replicate spots"}, {"binder": "Table S2 C row 65 (dsDNA) DNA 1: GTCAGCTATAGTGACACCACAAGGCCTGAAGAGGGC DNA 2: GCCCTCTTCAGGCCTTGTGGTGTCACTATAGCTGAC", "binding signal": "370 PBM fluorescence, median of replicate spots"}, {"binder": "Table S2 C row 145 (dsDNA) DNA 1: TGTGGCTGCCCTCAGACCACAAACCACCAGCCCTAT DNA 2: ATAGGGCTGGTGGTTTGTGGTCTGAGGGCAGCCACA", "binding signal": "352 PBM fluorescence, median of replicate spots"}, {"binder": "Table S2 C row 87 (dsDNA) DNA 1: GAATGTCTTTAAAAAACCACAGAATTGGGCTGGGCG DNA 2: CGCCCAGCCCAATTCTGTGGTTTTTTAAAGACATTC", "binding signal": "379 PBM fluorescence, median of replicate spots"}, {"binder": "Table S2 C row 129 (dsDNA) DNA 1: GCAGCTGTAGAGGCCTGAGGTTTACCTAATCTGCTA DNA 2: TAGCAGATTAGGTAAACCTCAGGCCTCTACAGCTGC", "binding signal": "377 PBM fluorescence, median of replicate spots"}, {"binder": "Table S2 C row 102 (dsDNA) DNA 1: GGTCAGGAGGGATGAACCACCGCTTACTCGTTCTTC DNA 2: GAAGAACGAGTAAGCGGTGGTTCATCCCTCCTGACC", "binding signal": "362 PBM fluorescence, median of replicate spots"}, {"binder": "Table S2 C row 43 (dsDNA) DNA 1: GGCTTTCCAAGCTAGTGTGGTCCACTTGCTCCCTCA DNA 2: TGAGGGAGCAAGTGGACCACACTAGCTTGGAAAGCC", "binding signal": "378 PBM fluorescence, median of replicate spots"}, {"binder": "Table S2 C row 190 (dsDNA) DNA 1: TAAGAGAAAGCGCAAACCGCACAAGACCAGTTCAAA DNA 2: TTTGAACTGGTCTTGTGCGGTTTGCGCTTTCTCTTA", "binding signal": "359 PBM fluorescence, median of replicate spots"}, {"binder": "Table S2 C row 83 (dsDNA) DNA 1: AGAACTTAAGATCTCTGTGGCTTGTGTGTGTGTGTA DNA 2: TACACACACACACAAGCCACAGAGATCTTAAGTTCT", "binding signal": "361 PBM fluorescence, median of replicate spots"}, {"binder": "Table S2 C row 147 (dsDNA) DNA 1: GGCCTCTGAGGAGCAGCCGCAGGAGGAGGAGGAGGT DNA 2: ACCTCCTCCTCCTCCTGCGGCTGCTCCTCAGAGGCC", "binding signal": "353 PBM fluorescence, median of replicate spots"}, {"binder": "Table S2 C row 21 (dsDNA) DNA 1: TTGCAGAGTTAGCTAGCCACAGGCAAGTCTCCATTG DNA 2: CAATGGAGACTTGCCTGTGGCTAGCTAACTCTGCAA", "binding signal": "364 PBM fluorescence, median of replicate spots"}, {"binder": "Table S2 C row 75 (dsDNA) DNA 1: AGCTCTGAGAATCATTGTGGCCACACTGTCATGGTC DNA 2: GACCATGACAGTGTGGCCACAATGATTCTCAGAGCT", "binding signal": "376 PBM fluorescence, median of replicate spots"}, {"binder": "Table S2 C row 37 (dsDNA) DNA 1: CTGGTGCAGAAAAAAACCACACAAGCCATTGGGTAG DNA 2: CTACCCAATGGCTTGTGTGGTTTTTTTCTGCACCAG", "binding signal": "369 PBM fluorescence, median of replicate spots"}, {"binder": "Table S2 C row 124 (dsDNA) DNA 1: CGCAGCTCCCCACTGTGCGGTTATCTAGGCCAGCAC DNA 2: GTGCTGGCCTAGATAACCGCACAGTGGGGAGCTGCG", "binding signal": "376 PBM fluorescence, median of replicate spots"}, {"binder": "Table S2 C row 55 (dsDNA) DNA 1: CTGACATTTAAGCTCACCACATGTGGGATAGTTAGT DNA 2: ACTAACTATCCCACATGTGGTGAGCTTAAATGTCAG", "binding signal": "379 PBM fluorescence, median of replicate spots"}]}]}
